The values below come from US20200347101A1 (PAI LIFE SCIENCES, published 2020).

Where “and” joins values, the source holds several entries; their conditions need not be identical. Equal entries are not always repeated. Where two headings read alike, the source gives them in different places.

In assay [1] the target is DSG2 on cells (HeLa cells in the viral inhibition assay; HT29 cells in the shedding assay) (UniProt Q14126).
The target is the same in assay [2]. Kind of assay: cell-based or functional assay.
Assay [3] has the same target. Kind of assay: cell-based or functional assay. This is another data set of the same source.
Assay [4] addresses recombinant human DSG2 (human) (UniProt Q14126). Briefly: SPR (Biacore 3000), JO protein immobilized, rhDSG2 flowed. A general note: In SPR one partner is held on a chip, and binding of the other changes the refractive index at the surface.
For assay [5] the target is unchanged. Kind of assay: SPR (Biacore 3000), hDSG2 immobilized, JO protein flowed.
Assay [6] shares this target. Briefly: SPR; summary table, Affinity to DSG2 (nM).
Assay [7] has the same target. Kind of assay: SPR, comparison of the two formats.
Assay [8] concerns the target T1, DSG2 on cells (HeLa cells in the viral inhibition assay; HT29 cells in the shedding assay) (UniProt Q14126 50-1118).
T1 sequence: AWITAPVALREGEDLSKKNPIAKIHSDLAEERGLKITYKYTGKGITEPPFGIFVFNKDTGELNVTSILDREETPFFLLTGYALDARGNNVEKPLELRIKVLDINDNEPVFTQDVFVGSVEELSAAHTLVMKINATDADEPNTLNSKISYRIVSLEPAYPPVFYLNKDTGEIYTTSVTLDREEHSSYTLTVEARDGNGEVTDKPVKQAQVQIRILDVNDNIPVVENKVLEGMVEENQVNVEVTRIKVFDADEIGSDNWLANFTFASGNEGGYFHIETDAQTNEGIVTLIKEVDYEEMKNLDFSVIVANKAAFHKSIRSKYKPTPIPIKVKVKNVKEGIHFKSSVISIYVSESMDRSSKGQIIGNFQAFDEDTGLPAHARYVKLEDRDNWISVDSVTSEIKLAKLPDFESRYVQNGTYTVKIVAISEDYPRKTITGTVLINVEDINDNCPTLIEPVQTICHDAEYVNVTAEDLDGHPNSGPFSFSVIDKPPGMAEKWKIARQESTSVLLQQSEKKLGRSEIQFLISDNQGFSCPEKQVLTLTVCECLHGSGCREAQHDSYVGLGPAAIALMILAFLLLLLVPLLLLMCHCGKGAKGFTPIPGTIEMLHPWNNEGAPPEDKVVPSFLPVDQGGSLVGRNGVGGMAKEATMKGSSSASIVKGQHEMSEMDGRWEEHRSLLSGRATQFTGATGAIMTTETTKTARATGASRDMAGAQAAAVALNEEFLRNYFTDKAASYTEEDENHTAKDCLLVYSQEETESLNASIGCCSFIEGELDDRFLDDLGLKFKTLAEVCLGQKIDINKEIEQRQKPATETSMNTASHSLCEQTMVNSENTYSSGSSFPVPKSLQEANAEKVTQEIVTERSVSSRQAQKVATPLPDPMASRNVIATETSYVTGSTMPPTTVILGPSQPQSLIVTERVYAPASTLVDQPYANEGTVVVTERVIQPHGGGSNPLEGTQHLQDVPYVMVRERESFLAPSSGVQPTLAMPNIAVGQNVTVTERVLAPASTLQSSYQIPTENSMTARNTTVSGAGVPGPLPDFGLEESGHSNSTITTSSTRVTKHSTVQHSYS
Briefly: cell-based or functional assay.

Assay [9] has as its target T1, DSG2 on cells (HeLa cells in the viral …). Kind of assay: cell-based or functional assay. The source holds these as a separate data set.
Assay [10] deals with T2, recombinant human DSG2 (human, UniProt Q14126 50-609).
T2 construct: also called hDSG2; rhDSG2
T2 sequence: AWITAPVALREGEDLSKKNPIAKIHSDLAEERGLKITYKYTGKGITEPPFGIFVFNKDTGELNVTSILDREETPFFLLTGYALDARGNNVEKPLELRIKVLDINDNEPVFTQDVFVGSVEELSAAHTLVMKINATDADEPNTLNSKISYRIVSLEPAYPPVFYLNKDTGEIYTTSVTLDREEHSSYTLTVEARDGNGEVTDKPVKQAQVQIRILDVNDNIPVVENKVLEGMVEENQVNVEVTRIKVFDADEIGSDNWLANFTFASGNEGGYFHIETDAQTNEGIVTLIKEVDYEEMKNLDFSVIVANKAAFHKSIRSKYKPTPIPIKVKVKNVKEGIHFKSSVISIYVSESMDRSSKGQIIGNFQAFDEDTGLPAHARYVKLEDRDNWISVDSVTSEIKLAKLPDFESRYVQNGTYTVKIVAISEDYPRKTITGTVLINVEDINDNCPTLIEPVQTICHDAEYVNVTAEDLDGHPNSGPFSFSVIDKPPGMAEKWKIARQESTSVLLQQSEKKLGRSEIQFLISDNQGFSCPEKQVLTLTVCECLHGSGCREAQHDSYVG
Kind of assay: SPR (Biacore 3000), hDSG2 immobilized, JO protein flowed.

For assay [11], the target named is T2, recombinant human DSG2. Kind of assay: SPR, comparison of the two formats.
The target of assay [12] is T2, recombinant human DSG2. Kind of assay: SPR; summary table, Affinity to DSG2 (nM).
Assay [13] deals with T2, recombinant human DSG2. Briefly: SPR (Biacore 3000), JO protein immobilized, rhDSG2 flowed.
For assay [14], the target named is T1, DSG2 on cells (HeLa cells in the viral …). Briefly: cell-based or functional assay. The source holds these as a separate data set.
Assay [15] shares this target. Kind of assay: cell-based or functional assay. This is another data set of the same source.
Assay [16] shares this target. Briefly: cell-based or functional assay. The source holds these as a separate data set.
Assay [17] has the same target. Briefly: cell-based or functional assay. The source holds these as a separate data set.

In assay [1], JO-4 (designed binder) came in with an IC50 (read off the curve); VIA, oxidized (non-reduced) JO4 of 0.05 µg/mL and an IC50 (read off the curve); VIA, reduced (DTT) JO4 of 0.05 µg/mL. In assay [2], this molecule came in with a DSG2 shedding from HT29 cells relative to PBS treated monolayers (ELISA of the medium) of 1.44 fold and a VIA IC50 of 0.067 µg/mL. The molecule further registered a VIA IC50 in [3] of 0.065 µg/mL.
As for “JO-4 (designed binder; other documents disagree on this pair)”, in assay [4], the Kd is 0.58 nM, the koff came to 0.00046 s⁻¹ and the kon worked out at 790000 M⁻¹ s⁻¹. Also, in [5], the Kd was determined as 11.4 nM and the koff came to 0.00264 s⁻¹. For the same molecule, the Kd in assay [6] was 0.58 nM. Besides, in [7], the fold faster on-rate, JO-4 immobilized against DSG2 immobilized was 3.4 fold; the fold improvement in affinity, JO-4 immobilized against DSG2 immobilized came to 20 fold; the fold more stable dissociation rate, JO-4 immobilized against DSG2 immobilized was found to be 5.7 fold.

B1: GB10 (designed binder)
chain: MRGSHHHHHHCGSKVSALKEKVSALKEKVSALKEKVSALKEKVSALKEGSGGGSGGGSGGGSNSIALKNNTLWTGPKPEANSIIEYGKQNPDSKLTLILVKNGGIVNGYVTLMGASDYVNTLFKNKNVSINVELYFDATGHILPDSSSLKTDLELKYKQTADFSARGFMPSTTAYPFVLPNAGTHNENYIFGQSYYKASDGALFPLEVTVMLNKRLPDSRTSYVMTFLWSLNAGLAPETTQATLITSPFTFSYIREDD
With B1, in assay [8], the “VIA IC50” value was 0.026 µg/mL.

B2: GB5 (designed binder)
chain: MRGSHHHHHHGSKNSIALKNNTLWTGPKPEANSIIEYGKQNPDSKLTLILVKNGGIVNGYVTLMGASDYVNTLFKNKNVSINVELYFDATGHILPDSSSLKTDLELKYKQTADFSARGFMPSTTAYPFVLPNAGTHNENYIFGQSYYKASDGALFPLEVTVMLNKRLPDSRTSYVMTFLWSLNAGLAPETTQATLITSPFTFSYIREDD
For B2, in assay [8], the “VIA IC50” value was determined as 0.241 µg/mL. For the same molecule, the “lower viral inhibition relative to JO-1 (VIA)” value in assay [9] is 5 fold.

B3: GB7/JOC-x (designed binder)
chain: RGSHHHHHHGSKNSIALKNNTLWTGPKPEANSIIEYGKQNPDSKLTLILVKNGGIVNGYVTLMGASDYVNTLFKNKNVSINVELYFDATGHILPDSSSLKTDLELKYKQTADFSARGFMPSTTAYPFDLPNAGTHNENYIFGQSYYKASDGALFPLEVTVMLNKRLPDSRTSYVMTFLWSLNAGLAPETTQATLITSPFTFSYIREDDGGGSGGGSGGGSC
notes: also called GB7 (ΔDD)
As to B3, in assay [10], the equilibrium dissociation constant (Kd) was found to be 0.58 nM and the dissociation rate constant (koff) turned out to be 0.00083 s⁻¹. Moreover, the “fold reduction in affinity, GB7 immobilized against DSG2 immobilized” value in assay [11] stood at 2 fold. Further, the Kd in assay [12] stood at 1.2 nM. Also, in assay [8], the “VIA IC50” value is 0.032 µg/mL. Further, in assay [13], the Kd was determined as 1.19 nM, the koff worked out at 0.00075 s⁻¹ and the kon came to 630000 M⁻¹ s⁻¹. In addition, in assay [14], the “IC50 (read off the curve); VIA, oxidized (non-reduced) GB7 (JOC-x)” value was roughly 0.02 µg/mL and the “IC50 (read off the curve); VIA, reduced (DTT) GB7 (JOC-x)” value was roughly 0.2 µg/mL. In assay [9], the “DSG2 shedding from HT29 cells relative to PBS treated monolayers (ELISA of the medium)” value was 1.39 fold; the “VIA IC50” value is 0.032 µg/mL and 0.055 µg/mL; the “VIA, DTT-reduced against oxidized protein: decrease in viral inhibition” value is 5 fold; the “loss of viral inhibition of unconjugated JOC-x in the presence of poly(I:C) (VIA)” value was roughly 3.9 fold. Besides, in assay [15], the “VIA IC50” value was found to be 0.029 µg/mL. For the same molecule, the “IC50 (read off the curve); VIA, unconjugated mixture JOC-x + poly(I:C)” value in [16] is roughly 0.2 µg/mL.

B4: JOC-DOTA (Eu) (designed binder)
chain: B3 chain
modifications: maleimido-mono-amide-DOTA conjugated to reduced JOC-x (free cysteine), complexed with europium ions
In the case of B4, the “VIA IC50” value in [9] was determined as 0.254 µg/mL.

B5: JOC-DOTA (designed binder)
chain: B3 chain
modifications: maleimido-mono-amide-DOTA conjugated to reduced JOC-x (free cysteine)
In the case of B5, the “VIA IC50” value in assay [9] came out at 0.131 µg/mL.

B6: JOC-poly(I:C) conjugate (designed binder)
chain: B3 chain
modifications: poly(I:C) linked through the crosslinker SMPB to the free cysteine on JOC-x
On to B6, for which, in assay [9], the “IC50 of the conjugate relative to the unconjugated protein (VIA)” value was roughly 6.3 fold and the “VIA IC50” value was 0.203 µg/mL.

B7: GB3 (designed binder)
chain: MRGSHHHHHHGSKVSALKEKVSALKEKVSALKEKVSALKEKVSALKEGSGGGSGGGSGGGSNSIALKNNTLWTGPKPEANSIIEYGKQNPDSKLTLILVKNGGIVNGYVTLMGASDYVNTLFKNKNVSINVELYFDATGHILPDSSSLKTDLELKYKQTADFSARGFMPSTTAYPFDLPNAGTHNENYIFGQSYYKASDGALFPLEVTVMLNKRLPDSRTSYVMTFLWSLNAGLAPETTQATLITSPFTFSYIREDDGGGSGGGSGGGSC
Regarding B7, in assay [10], the Kd stood at 0.11 nM and the koff amounted to 0.0005 s⁻¹. The Kd in assay [12] was found to be 0.11 nM. Also, the “VIA IC50” value in assay [8] is 0.029 µg/mL. Further, in assay [17], the “IC50 (read off the curve); VIA, oxidized (non-reduced) GB3” value was roughly 0.03 µg/mL and the “IC50 (read off the curve); VIA, reduced (DTT) GB3” value is roughly 0.06 µg/mL. Further, in assay [9], the “DSG2 shedding from HT29 cells relative to PBS treated monolayers (ELISA of the medium)” value came out at 1.52 fold and the “VIA, DTT-reduced against oxidized protein: reduction in viral inhibition” value is roughly 2 fold. In [15], the “VIA IC50” value is 0.028 µg/mL.

A word on the Kd: it is a measure of binding affinity in units of concentration. Broadly, the koff is the rate constant with which the complex falls apart. The term kon denotes a measure of how fast the partners come together.
